In patent US20230340091A1 (MOR RESEARCH APPLICATIONS, published 2023):

B1: PMS209 (Fab 2), Fab format (Fab, V domains shown)
VH: QVQLQESGPGLVKPSETLSLTCTVSGGSISSSSYYWGWIRQPPGKGLEWIGSIYYSGSTYYNPSLKSRVTISVDTSKNQFSLKLSSVTAADTAVYYCARLRRYDSSGFFFDYWGQGTLVTVSS
VL: SVVTQPPSVSAAPGQKVTISCSGSSSNIGNNYVSWHQQLPGTAPKLLIYDNDRRPSGIPDRFSGSKSGTSATLAITGLQTGDEADYYCGTWDSSLSGGVFGGGTKVTVLS
B2: PMS213 (Fab 6), Fab format (Fab, V domains shown)
VH: QVQLVQSGPGLVKPSETLSLICTVSGGSISSSNYYWGWVRQPPGKGLEWIGTIYYSGTTYYNPSLKSRVTISVDTSKNQFSLELSSVTAADTAVYYCARLGRGSAFDIWGQGTMVTVSS
VL: SVVTQPPSLSAAPGQSITISCSGGGSNIGRNSVSWHRQFPGAAPELLAFDTFRRPSGVPDRFSGSKSGSSATLVITGLQTGDEADYYCGTWDNSLDSGVFGGGTKVTVLR
notes: Fab expressed in E. coli with His and myc tags on the heavy chain

Target: recombinant human alpha-synuclein preformed fibrils (PFF) (human, UniProt P37840 1-140)
Experiment: ELISA on coated alpha-synuclein PFF, Fab in serial dilution
Description: A standard ELISA assay was performed using alpha-synuclein PFFs as the coating protein.

Binder	binding result
B1	no binding
B2	no binding
